{"source": "the supplement of paper PMC9732359", "note": "± gives the uncertainty stated by the source."}
{"experiment": "protein stability index of a GFP-peptide fusion (yeast GPS) (PSI 1-4); higher = more stable; sorted into four equal gates, so the index is relative within each strain", "conditions": "san1∆", "outline": "(§1)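 Yeast carrying a pooled library were grown to mid-log phase in leucine-free medium. Each library plasmid expresses Cherry and has a tiled 17-residue yeast protein peptide fused downstream of GFP. Cells were sorted into four equal gates by GFP/Cherry ratio, and plasmids from each gate were PCR-amplified, Illumina-sequenced and assigned to strains by barcode. Summing, across gates, the read frequency times the gate number gave each peptide's protein stability index.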"}
{"sequence": "TDRQKKLLGVDMQSSVD [YLR018C/POM34]", "protein stability index": "3.19 ± 0.043"}
{"sequence": "TDYARAKNRILASKIKQ [RRI1]", "protein stability index": "1.94 ± 0.091"}
{"sequence": "TEDIREGDQAEVIFSFE [YMR129W/POM152]", "protein stability index": "3.19 ± 0.066"}
{"sequence": "TEEPDLAIADVETKLET [DSN1]", "protein stability index": "2.48 ± 0.097"}
{"sequence": "TEGCIGLSQTEAFGNIK [MCD1]", "protein stability index": "2.81 ± 0.093"}
{"sequence": "TEISPMAGSQFENGNIT [RRP45]", "protein stability index": "2.86 ± 0.058"}
{"sequence": "TEKQRKKQIAFPQRKYA [RPL35A]", "protein stability index": "1.13 ± 0.21"}
{"sequence": "TELASKDNAIYNGFIDI [YCS4]", "protein stability index": "1.09 ± 0.14"}
{"sequence": "TELLDEFIAAVNNPQEE [RPN10]", "protein stability index": "3.08 ± 0.064"}
{"sequence": "TENEIPNLIEKMVAKGL [BRR2]", "protein stability index": "2.63 ± 0.093"}
{"sequence": "TERHIQVGDGLEILIVT [PRE7]", "protein stability index": "2.63 ± 0.11"}
{"sequence": "TFDSSWNWAKQSLLSLY [FAS2]", "protein stability index": "2.08 ± 0.15"}
{"sequence": "TFSPSGKLGQIDYALTA [PRE8]", "protein stability index": "2.67 ± 0.12"}
{"sequence": "TFSQESGLMVILYTSKI [RRI2]", "protein stability index": "2.6 ± 0.085"}
{"sequence": "TFSSSISTYISTDELVG [POP8]", "protein stability index": "2.9 ± 0.072"}
{"sequence": "TFVHVTDLSGKETIARV [RPS14A]", "protein stability index": "2.84 ± 0.05"}
{"sequence": "TFVPTNSDKPRDVYVFD [DIS3]", "protein stability index": "3.11 ± 0.064"}
{"sequence": "TGAGVDVNTNANANANA [SNF11]", "protein stability index": "3.19 ± 0.045"}
{"sequence": "TGDVLLIQDLLHRLTPK [RPN1]", "protein stability index": "3.01 ± 0.062"}
{"sequence": "TGESWVKLTYNSPSSAL [YDL088C/ASM4]", "protein stability index": "2.08 ± 0.067"}
{"sequence": "TGHLFLKIIHTSVWAGQ [PRP8]", "protein stability index": "1.19 ± 0.097"}
{"sequence": "TGKDCVAIACDLRLGSQ [PUP3]", "protein stability index": "2.32 ± 0.064"}
{"sequence": "TGLHFGRLSLRSLTAYA [QCR10]", "protein stability index": "1.39 ± 0.095"}
{"sequence": "TGLSQIPNRRFTLWWSP [PRP8]", "protein stability index": "1.87 ± 0.048"}
{"sequence": "TGLVSIRGKILTGTVVS [RPS11A]", "protein stability index": "2.58 ± 0.053"}
{"sequence": "TGPIEPKARQELPTQLA [RRP46]", "protein stability index": "3.21 ± 0.089"}
{"sequence": "TGPKQQEITTNLENHFK [SCL1]", "protein stability index": "3.04 ± 0.032"}
{"sequence": "THAVGNNCEDFVSRPDR [FAS1]", "protein stability index": "2.97 ± 0.072"}
{"sequence": "THNDIDSTAVALEEGLN [YJL039C/NUP192]", "protein stability index": "2.53 ± 0.082"}
{"sequence": "THNSYEKACQVLKYMLL [RPN6]", "protein stability index": "2.23 ± 0.087"}
{"sequence": "THSQTGTQQSNMYTSTQ [SIR4]", "protein stability index": "2.93 ± 0.051"}
{"sequence": "TICIELKTVLHNGRDKI [RGR1]", "protein stability index": "1.78 ± 0.085"}
{"sequence": "TIDNIDSENFSFEKLYE [YMR129W/POM152]", "protein stability index": "3.33 ± 0.074"}
{"sequence": "TIGKRRTTTNTTAEPKA [TAF14]", "protein stability index": "3.15 ± 0.045"}
{"sequence": "TISECNLYDDVKCWSKF [MED1]", "protein stability index": "3.38 ± 0.071"}
{"sequence": "TISQALLNAADRDALSG [PUP3]", "protein stability index": "1.95 ± 0.17"}
{"sequence": "TISSADFIQNVGRLWDQ [ECM29]", "protein stability index": "3.39 ± 0.083"}
{"sequence": "TIVQLCKKKEMSQYQST [YIL149C/MLP2]", "protein stability index": "1.76 ± 0.091"}
{"sequence": "TIVSNVEEKPGDRGALA [RPL2A]", "protein stability index": "3.37 ± 0.058"}
{"sequence": "TKDPDEQQLFEIFAFGN [CSN9]", "protein stability index": "3.17 ± 0.052"}
{"sequence": "TKEQYAAESKKYRQTKL [RPL5]", "protein stability index": "3.37 ± 0.094"}
{"sequence": "TKMDGHARGGGAISAVA [SRP54]", "protein stability index": "3.51 ± 0.14"}
{"sequence": "TKNNTQASGITAGAAAN [SSN3]", "protein stability index": "2.07 ± 0.11"}
{"sequence": "TKSETKQENETMQPPYI [MED11]", "protein stability index": "2.7 ± 0.1"}
{"sequence": "TKSPAYPMMHQVRNQVF [RGR1]", "protein stability index": "1.8 ± 0.077"}
{"sequence": "TKYSDVLGFLQLFHNLI [YJL039C/NUP192]", "protein stability index": "2.86 ± 0.048"}
{"sequence": "TKYTDDMATGSNDTTAF [SRB8]", "protein stability index": "3.45 ± 0.057"}
{"sequence": "TLDNIDDINKAKAVWEN [ARP9]", "protein stability index": "3.29 ± 0.051"}
{"sequence": "TLDNPLLVDKDANGVSL [YJL039C/NUP192]", "protein stability index": "3.08 ± 0.038"}
{"sequence": "TLDREYITLKATFLKDD [QCR2]", "protein stability index": "1.51 ± 0.1"}
{"sequence": "TLETIEIHPITFPPEVL [RRP43]", "protein stability index": "2.3 ± 0.06"}
{"sequence": "TLISRISSLFTITTILI [YML103C/NUP188]", "protein stability index": "1.37 ± 0.088"}
{"sequence": "TLKYICAECSSKLSLSR [RPC10]", "protein stability index": "2.7 ± 0.057"}
{"sequence": "TLNNIFRFDSIQRETLL [GRR1]", "protein stability index": "2.75 ± 0.052"}
{"sequence": "TLRTISFKGSPNERKAK [SNF2]", "protein stability index": "2.74 ± 0.15"}
{"sequence": "TMLITGQRPDRATTYEK [SIN4]", "protein stability index": "3.25 ± 0.07"}
{"sequence": "TMMANFEEWIKMATDNK [BRN1]", "protein stability index": "3.08 ± 0.1"}
{"sequence": "TNAFLDSLTRAVKDQQK [SNF2]", "protein stability index": "2.68 ± 0.049"}
{"sequence": "TNAPLRTLNIQPEVAVK [YIL149C/MLP2]", "protein stability index": "1.65 ± 0.096"}
{"sequence": "TNKENNIVDSSAAGNKA [YIL149C/MLP2]", "protein stability index": "2.87 ± 0.041"}
{"sequence": "TNLKNHPAYLFKGLETP [YLR018C/POM34]", "protein stability index": "1.59 ± 0.061"}
{"sequence": "TNNDSNNKNNSITTGND [MED2]", "protein stability index": "2.7 ± 0.081"}
{"sequence": "TNNGNDDNETENPNFWR [GRR1]", "protein stability index": "2.37 ± 0.053"}
{"sequence": "TNQLKSLKGLQSKLKDV [RPN8]", "protein stability index": "2.62 ± 0.19"}
{"sequence": "TNSEDKLSKVQLYEDLC [MED4]", "protein stability index": "3.09 ± 0.081"}
{"sequence": "TNSHYNNTNTDNVSGLT [SNF2]", "protein stability index": "3.37 ± 0.044"}
{"sequence": "TNVIAFAFWNLLVKFIK [YLR018C/POM34]", "protein stability index": "1.29 ± 0.16"}
{"sequence": "TNVNPSKNFNVILASSL [YML103C/NUP188]", "protein stability index": "1.99 ± 0.08"}
{"sequence": "TNWARTTFRNEYGKHDF [MED8]", "protein stability index": "2.91 ± 0.088"}
{"sequence": "TNYEMSYWQKSYFKNSV [LIN1]", "protein stability index": "2.09 ± 0.061"}
{"sequence": "TPKYRLVVRFTNKDIIC [RPL5]", "protein stability index": "1.17 ± 0.2"}
{"sequence": "TPLFHALAEGHGDAAVL [NAS6]", "protein stability index": "3.07 ± 0.091"}
{"sequence": "TPLTFALPRGARTATVS [RPL14A]", "protein stability index": "1.4 ± 0.1"}
{"sequence": "TPMGGFVHYGEIKNDFI [RPL3]", "protein stability index": "3.27 ± 0.12"}
{"sequence": "TPNVNVLVLHGDKDTRA [ISW2]", "protein stability index": "2.32 ± 0.08"}
{"sequence": "TPQSKGFVRNSFFSGLS [RPO31]", "protein stability index": "3.13 ± 0.089"}
{"sequence": "TPSLPIAPPVAPHDSEA [SNF5]", "protein stability index": "3.23 ± 0.064"}
{"sequence": "TPSSDQNPLPTRFEVEL [SOH1]", "protein stability index": "2.65 ± 0.075"}
{"sequence": "TPTHSDSHEDMKRRRLE [ROX3]", "protein stability index": "3.14 ± 0.18"}
{"sequence": "TQDVFLKDFNTERVVEI [FAS2]", "protein stability index": "3.211 ± 0.021"}
{"sequence": "TQQQPGAPGANARMPGM [SRP54]", "protein stability index": "2.89 ± 0.25"}
{"sequence": "TQQSHEQQPEQPQETEE [RPT4]", "protein stability index": "2.99 ± 0.056"}
{"sequence": "TQTEELKFMAASEVATH [PRP8]", "protein stability index": "2.35 ± 0.081"}
{"sequence": "TQTGLLQDLEEAKSFQD [RPC82]", "protein stability index": "2.13 ± 0.14"}
{"sequence": "TQYATSQKTKTIQSDLN [SMC2]", "protein stability index": "2.1 ± 0.11"}
{"sequence": "TRASKVLEQLSGQTPVQ [RPL11A]", "protein stability index": "2.84 ± 0.074"}
{"sequence": "TRDEKDPKRLFEGNALI [RPS9A]", "protein stability index": "2.97 ± 0.18"}
{"sequence": "TRFPPAVFYTPKELGGL [PRP8]", "protein stability index": "3.25 ± 0.068"}
{"sequence": "TRGRNIIMHKDVEIGRM [RET1]", "protein stability index": "2.98 ± 0.076"}
{"sequence": "TRGRSATIRETYEIICD [RRP43]", "protein stability index": "2.57 ± 0.058"}
{"sequence": "TRLLNIVMQLRKCCNHP [ISW2]", "protein stability index": "2.94 ± 0.049"}
{"sequence": "TRSIKEKWLLNQIPVTE [SRB6]", "protein stability index": "1.29 ± 0.19"}
{"sequence": "TRTVITDWDPQFNAITG [SMC2]", "protein stability index": "2.67 ± 0.1"}
{"sequence": "TRYMFQRDFRKHGAVHM [RPL21B]", "protein stability index": "1.79 ± 0.12"}
{"sequence": "TSAHEAIRADPAFKPTE [RPL5]", "protein stability index": "3.11 ± 0.089"}
{"sequence": "TSASQPFKFGKTSEKSE [YOR098C/NUP1]", "protein stability index": "2.96 ± 0.13"}
{"sequence": "TSCLQNNNQKIDDNYIV [SRB8]", "protein stability index": "3.33 ± 0.11"}
{"sequence": "TSDGALSVMCGCGTVKR [RPR2]", "protein stability index": "1.93 ± 0.14"}
{"sequence": "TSINHKIYRVGKGDDEA [RPL3]", "protein stability index": "3.67 ± 0.044"}
{"experiment": "protein stability index of a GFP-peptide fusion (yeast GPS) (PSI 1-4); higher = more stable; sorted into four equal gates, so the index is relative within each strain", "conditions": "ubr1∆", "outline": "as §1"}
{"sequence": "TDLESLSSGESNEIKVT [SIR4]", "protein stability index": "2.46 ± 0.071"}
{"sequence": "TDNMSGRGLWNPSYPGM [YJL039C/NUP192]", "protein stability index": "2.84 ± 0.26"}
{"sequence": "TDQILQLLKEDSEKRNK [RRP45]", "protein stability index": "3.36 ± 0.11"}
